Test results as given in PMC6769508, “Cooperative Binding of KaiB to the KaiC Hexamer Ensures Accurate Circadian Clock Oscillation in Cyanobacteria” (International Journal of Molecular Sciences, 2019).
Several values for one entry are separate records, joined by “and”; a condition that tells them apart may be missing. Equal entries are not always repeated.

B1: TeKaiB_(10–108), N-terminal truncated mutant of T. elongatus KaiB (domain or fragment, Thermosynechococcus elongatus, UniProt Q79V61 10-108, looked up)
chain: LKLYVAGNTPNSVRALKTLNNILEKEFKGVYALKVIDVLKNPQLAEEDKILATPTLAKVLPPPVRRIIGDLSNREKVLIGLDLLYEEIGDQAEDDLGLE
notes: KaiB, Thermosynechococcus elongatus (strain BP-1), residues 10-108 (N-terminal segment deleted); source: E. coli, GST-tagged, purified after cleavage of the GST-tag
B2: TeKaiB_(10–108/DD), TeKaiB_(10–108) with Arg23 and Lys26 replaced with aspartate (domain or fragment, Thermosynechococcus elongatus, UniProt Q79V61 10-108, looked up)
chain: LKLYVAGNTPNSVDALDTLNNILEKEFKGVYALKVIDVLKNPQLAEEDKILATPTLAKVLPPPVRRIIGDLSNREKVLIGLDLLYEEIGDQAEDDLGLE
notes: KaiB, Thermosynechococcus elongatus (strain BP-1), residues 10-108, Arg23 and Lys26 substituted with aspartate; source: E. coli, GST-tagged, purified after cleavage of the GST-tag
B3: TeKaiB, wild-type T. elongatus KaiB (natural protein, Thermosynechococcus elongatus, UniProt Q79V61 1-108, looked up)
chain: MAPLRKTYVLKLYVAGNTPNSVRALKTLNNILEKEFKGVYALKVIDVLKNPQLAEEDKILATPTLAKVLPPPVRRIIGDLSNREKVLIGLDLLYEEIGDQAEDDLGLE
notes: KaiB, Thermosynechococcus elongatus (strain BP-1), wild type; source: E. coli, GST-tagged, purified after cleavage of the GST-tag
B4: TeKaiBDD, TeKaiB with the DD mutation (Arg23 and Lys26 to aspartate) (natural protein, Thermosynechococcus elongatus, UniProt Q79V61 1-108, looked up)
chain: MAPLRKTYVLKLYVAGNTPNSVDALDTLNNILEKEFKGVYALKVIDVLKNPQLAEEDKILATPTLAKVLPPPVRRIIGDLSNREKVLIGLDLLYEEIGDQAEDDLGLE
notes: KaiB, Thermosynechococcus elongatus (strain BP-1), Arg23 and Lys26 substituted with aspartate; Named only in the SEC methods; source: E. coli, GST-tagged, purified after cleavage of the GST-tag
B5: TeKaiCDD, T. elongatus KaiC mutant with Ser431 and Thr432 substituted by aspartate residues (natural protein, Thermosynechococcus elongatus, UniProt Q79V60 1-518, looked up)
chain: MTNLPEHQSSPTEQSSAEVKKIPTMIEGFDDISHGGLPQGRTTLVSGTSGTGKTLFAVQFLYNGITIFNEPGIFVTFEESPQDIIKNALSFGWNLQSLIDQGKLFILDASPDPDGQEVAGDFDLSALIERIQYAIRKYKATRVSIDSVTAVFQQYDAASVVRREIFRLAFRLKQLGVTTIMTTERVDEYGPVARFGVEEFVSDNVVILRNVLEGERRRRTVEILKLRGTTHMKGEYPFTINNGINIFPLGAMRLTQRSSNVRVSSGVKTLDEMCGGGFFKDSIILATGATGTGKTLLVSKFLETGCQQGERALLFAYEESRAQLSRNASSWGIDFEELERRGLLRIICAYPESAGLEDHLQIIKSEIADFKPSRVAIDSLSALARGVSNNAFRQFVIGVTGFAKQEEITGFFTNTTDQFMGSNSITESHIDDITDTILLLQYVEIRGEMSRAINVFKMRGSWHDKGIREYVITEKGAEIRDSFRNFEGIISGTPTRISVDEKTELARIAKGMQDLESE
notes: KaiC, Thermosynechococcus elongatus (strain BP-1), Ser431 and Thr432 substituted by aspartate (mimics the fully phosphorylated form); Seen as a homohexamer by native MS; also called TeKaiCDD homohexamer; source: E. coli, GST-tagged, purified after cleavage of the GST-tag

Legend:
[1] = biological target: B5; test: native MS; TeKaiCDD (20 µM) titrated with KaiB or SasA proteins, incubated at 37 °C for 6 h, buffer-exchanged into 150 mM ammonium acetate, pH 6.8; nanoflow ESI; details: both partners purified
[2] = biological target: the molecule itself; test: SEC; Superdex 200 increase; 20 mM Tris-HCl (pH 8.0), 150 mM NaCl, 5 mM MgCl2, 0.5 mM EDTA, 1 mM DTT; TeKaiB or TeKaiBDD in the absence of KaiC
[3] = biological target: the molecule itself; test: native MS; TeKaiCDD (20 µM) titrated with KaiB or SasA proteins, incubated at 37 °C for 6 h, buffer-exchanged into 150 mM ammonium acetate, pH 6.8; nanoflow ESI

| Binder | stoichiometry N [1] | stoichiometry N [2] | also measured |
| --- | --- | --- | --- |
| B1 | 6 binder chains per KaiC hexamer |  |  |
| B2 | 1 binder chains per KaiC hexamer and 3 binder chains per KaiC hexamer and 2 binder chains per KaiC hexamer |  |  |
| B3 |  | 4 |  |
| B4 |  | 4 |  |
| B5 |  |  | stoichiometry N [3]: 6 |
